Legend:
syndecan-1 = biological target: T1, syndecan-1 (Homo sapiens, UniProt P18827); assay: Pull down binding assay with lysates of transfected cells
T1 construct: expressed in transfected cells; host or cells: HEK293 (syndecan-1); E. coli ER2566 (lacritin-intein)
T1 sequence (P18827 23-310): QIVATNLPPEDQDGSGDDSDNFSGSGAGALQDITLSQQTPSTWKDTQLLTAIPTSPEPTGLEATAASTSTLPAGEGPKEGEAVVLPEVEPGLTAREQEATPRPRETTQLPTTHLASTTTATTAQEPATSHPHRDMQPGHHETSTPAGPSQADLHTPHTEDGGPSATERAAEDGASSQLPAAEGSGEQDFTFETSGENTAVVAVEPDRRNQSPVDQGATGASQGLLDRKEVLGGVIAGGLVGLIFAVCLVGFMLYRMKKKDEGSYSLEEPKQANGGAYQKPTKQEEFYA
Excerpt: Biotinylated cell surface proteins were applied to lacritin affinity columns. After washing extensively in physiological salt-containing buffer, bound protein was eluted with 1 M NaCl, and identified with avidin-peroxidase using an ECL blot method. In controls, columns lacking lacritin were used. […] 293T cells stably transfected with human syndecan-2 or −4 were kindly provided by Dr. Atsushi Utani (Chiba University). A series of lacritin C-terminal and N-terminal deletion mutants were generated. Pull down binding assays involved incubation of intein-tagged lacritin or intein deletion mutants with lysates of untransfected or transfected cells followed by precipitation and SDS PAGE. Immunolocalization of syndecan-1 in human lacrimal glands was performed using anti-human syndecan-1 antibody (CD138).

melanoma (WM-164) cells = assay: 3H-thymidine uptake mitogenesis assay; assay type: cell-based, human
Experimental: (§1) For phosphotyrosine blotting and mitogenesis assays, cells in serum-containing media were seeded overnight in 24-well plates at a density of 0.5×10^5 cells/mm^2 corresponding to 20-30% confluency after cell attachment, incubated in serum-free media without supplements for 24 h (phosphotyrosine) or washed with serum-free media without supplements three times (mitogenesis) and incubated with lacritin (1-1000 nM), or positive controls EGF (1.6 nM) and 10% fetal bovine serum, or negative controls bovine serum albumin or no additive in serum-free media without supplements for the indicated times (phosphotyrosine) or 30 h (mitogenesis). For phosphotyrosine assays, cells were extracted in 1% NP40 containing sodium vanadate (2 mg/ml), DTT (5 mg/ml), protease inhibitors, 50 mM HEPES, 100 mM NaCl, and 2 mM EDTA; then separated by 10% SDS PAGE, transferred and blotted. The following antibodies (Cell Signaling Technology, Beverly Mass.) were tested: antiphosphotyrosine antibody (P-Tyr-100), anti-phospho-PKC αβII, anti-PKCα, anti-phospho-PKCδ, anti-phospho-PKC (pan), anti-p44/42 MAPK, anti-phospho-Raf, anti-phospho-SAPK/JNK, anti-phospho-p38 Map kinase, anti-phospho-Raf, anti-phospho-Akt, anti-phospho-CaMKII, anti-phospho-MARCKS, or anti-tubulin (loading control). After washing, bound antibodies were detected with peroxidase-labeled secondary antibody and ECL. With the exception of at least nine proteins in the P-Tyr-100 blot (FIG. 1), none of the effectors tested above appeared to be phospho-activated during lacritin signaling (not shown). For mitogenesis (Hussaini et al., '00), [^3H]-thymidine (2 mCi/ml) was added for the next 6 h. Incorporation was stopped with ice-cold phosphate buffered saline and followed by addition of cold and then room temperature trichloracetic acid (10%) for 10 min each, washing of cells with phosphate buffered saline, solubilization with 1 N sodium hydroxide, neutralization with 1 N hydrochloric acid, addition of scintillation fluid and then quantitation in a scintillation counter. To deplete PKCα in HSG cells, a pool of four PKCα-specific siRNAs (100 nM) were transfected via LipofectAMINE 2000 in Opti-MEMI Reduced Serum Medium (Invitrogen, Grand Island N.Y.) without serum and antibiotics according to manufacturer's instructions. Each of the four siRNAs was also individually transfected. In negative controls, cells were transfected with a pool of four lamin-specific siRNAs (Upstate LLC, Charlottesville Va.; Dharmacon Inc, Lafayette Colo.). Seventy-two hours post-transfection, mitogenesis was assessed by co-addition of 10 […] lacritin and [^3H]-thymidine (2 mCi/ml) (Amersham, Piscataway N.J.) for 24 hrs. PKCα depletion was confirmed by Western blotting.

[1] = system: non-invasive breast carcinoma (MCF7) cells; assay: 3H-thymidine uptake mitogenesis assay; assay type: cell-based, human
Experimental: as §1

[2] = system: fibrosarcoma (HT1080) cells; assay: 3H-thymidine uptake mitogenesis assay; assay type: cell-based, human
Experimental: as §1

cervical (HeLa) cells = assay: 3H-thymidine uptake mitogenesis assay; assay type: cell-based, human
Experimental: as §1

[3] = system: embryonic kidney (HEK) cells; assay: 3H-thymidine uptake mitogenesis assay; assay type: cell-based, human
Experimental: as §1

[4] = system: foreskin fibroblast (HS68) cells; assay: 3H-thymidine uptake mitogenesis assay; assay type: cell-based, human
Experimental: as §1

[5] = system: erythroleukemia (K-562) cells; assay: 3H-thymidine uptake mitogenesis assay; assay type: cell-based, human
Experimental: as §1

melanoma (SK-MEL) cells = assay: 3H-thymidine uptake mitogenesis assay; assay type: cell-based, human
Experimental: as §1

[6] = system: 48 kDa band in rat lacrimal cells; assay: Tyrosine phosphorylation of 48 kDa band, rat lacrimal cells; assay type: cell-based
Experimental: Freshly isolated rat lacrimal acinar cells, and HSG (human salivary gland) ductal and HCE (human corneal epithelial) cell lines were used to study lacritin function. For secretion studies, rat acinar cells were plated serum-free overnight on wells co-coated with 0.05 μM laminin 1 (to ensure adhesion) and 0 to 20 μM lacritin, or alternatively with laminin-1 (0.05 μM) and treated the next day with serum-free medium containing 0 to 162 ng/ml of soluble lacritin for four hours. Unstimulated and stimulated (carbachol 10^−4 M/VIP 10^−8 M) secretions were then collected, assessed (peroxidase assay) and normalized to μg cellular DNA. To study tyrosine phosphorylation, overnight serum-free cultures of both rat lacrimal acinar and HSG cells were washed and treated with 10 ng/ml of soluble lacritin for 0.5, 2.5, 10, and 30 minutes. Py(20) anti-phosphotyrosine antibody immunoprecipitation of cell lysates was then examined in Western blots of 7% SDS PAGE gels using Py(20) and ECL for detection. […] Using an inverted Zeiss 510 LSM for visualization, 50 second baseline images were first recorded. While the laser was running, lacritin was added (final concentration 4 and 40 ng/ml) and the response continually monitored every 786 msec for a minimum of 200 sec.

B1: lacritin: recombinant human lacritin from E. coli; mature 119 residue fragment (SEQ ID NO:10) of native lacritin SEQ ID NO:4 (protein, listed as Homo sapiens)
chain: EDASSDSTGADPAQEAGTSKPNEEISGPAEPASPPETTTTAQETSAAAVQGTAKVTSSRQELNPLKSIVEKSILLTEQALAKAGKGMHGGVPGGKQFIENGSEFAQKLLKKFSLLKPWA
syndecan-1
  binding to mammalian syndecan-1: bound
Melanoma (WM-164) cells
  mitogenesis: not mitogenic
[1]
  mitogenesis: not mitogenic
[2]
  mitogenesis: not mitogenic
Cervical (HeLa) cells
  mitogenesis: not mitogenic
[3]
  mitogenesis: mitogenic
[4]
  mitogenesis: not mitogenic
[5]
  mitogenesis: not mitogenic
Melanoma (SK-MEL) cells
  mitogenesis: not mitogenic
[6]
  tyrosine phosphorylation of a 48 kDa band: promoted the transient tyrosine phosphorylation
